In the supplement of paper PMC7877785:
± gives the uncertainty stated by the source.

Assay: self-splicing fitness, log relative to wild type (ln ratio); higher = more splicing; Tetrahymena group I intron in knt gene, E. coli kanamycin selection, DiMSum; sequences stand for … in CUCUCU…GGAGGGAAAAGUUAUCAGGCAUGCACCUGGUAGCUAGUCUUUAAACCAAUAGAUUGCAUCGGUUUAAAAGGCAAGACCGUCAAAUUGCGGGAAAGGGGUCAACAGCCGUUCAGUACCAAGUCUCAGGGGAAACUUUGAGAUGGCCUUGCAAAGGGUAUGGUAAUAAGCUGACGGACAUGGUCCUAACCACGCAGCCAAGUCCUAAGUCAACAGAUCUUCUGUUGAUAUGGAUGCAGUUCACAGACUAAAUGUCGGUCGGGGAAGAUGUAUUCUUCUCAUAAGAUAUAGUCGGACCUCUCCUUAAUGGGAGCUAGCGGAUGAAGUGAUGCAACACUGGAGCCGCUGGGAACUAAUUUGUAUGCGAAAGUAUAUUGAUUAGUUUUGGAGUACUCGUGGUCG
How it was run: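 Pooled colonies went to amplicon sequencing on an Illumina HiSeq 2500 after six replicate transformations. The plates were LB agar with 100 μg/mL carbenicillin, 50 μM IPTG and 0.2% rhamnose, with or without 25 μg/mL kanamycin, incubated overnight at 37°C or 30°C. The E. coli BL21(DE3) library had all eight P1ex-region intron nucleotides randomised, the intron placed in the knt kanamycin-resistance gene on pET-22b(+). DiMSum fitness is the error-weighted combination of replicate fold changes, kanamycin against none, normalised to wild type.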

Sequence	self-splicing fitness (ln) (30 °C)	self-splicing fitness (ln) (37 °C)
CUAAAGCAAUAUUACGGAAC	-2.36 ± 0.19	-1.42 ± 0.17
UUGCAGCAAUAUUACGGAGA	-1.85 ± 0.12	-1.08 ± 0.096
AGUUAGCAAUAUUACGGGUC	-1.99 ± 0.33	–
UCCCAGCAAUAUUACGGAUU	-2.66 ± 0.092	-0.582 ± 0.08
UAUGAGCAAUAUUACGGUCU	-2.78 ± 0.28	-2.96 ± 0.4
CCAAAGCAAUAUUACGCCAC	-3.59 ± 0.3	-2.01 ± 0.47
GACUAGCAAUAUUACGUAUC	-2.74 ± 0.11	-1.98 ± 0.12
ACACAGCAAUAUUACGCCCC	-1.66 ± 0.14	-0.901 ± 0.15
GCUUAGCAAUAUUACGUACG	-1.07 ± 0.065	0.0666 ± 0.089
AACAAGCAAUAUUACGCGAU	-3.61 ± 0.17	-1.57 ± 0.12
AAUUAGCAAUAUUACGCGCG	-1.62 ± 0.17	-0.951 ± 0.18
AUCUAGCAAUAUUACGUUAC	-1.99 ± 0.27	-1.74 ± 0.34
ACCUAGCAAUAUUACGUCUA	-2.44 ± 0.21	-2.04 ± 0.25
ACGAAGCAAUAUUACGUCGA	-2.34 ± 0.12	-1.65 ± 0.1
CUAUAGCAAUAUUACGGCUA	-2.95 ± 0.28	-3.42 ± 0.47
GGAUAGCAAUAUUACGCGUA	-0.646 ± 0.21	-2.02 ± 0.18
GGCCAGCAAUAUUACGGAGG	-2.39 ± 0.11	-1.14 ± 0.14
CAUUAGCAAUAUUACGUCAC	–	-1.63 ± 0.44
GACAAGCAAUAUUACGAUGU	-1.66 ± 0.067	-1.65 ± 0.11
CCGGAGCAAUAUUACGGUCU	-2.42 ± 0.22	-2.54 ± 0.38
GUGAAGCAAUAUUACGGACU	-0.0214 ± 0.15	-0.194 ± 0.19
GCCUAGCAAUAUUACGGACG	-1.98 ± 0.2	-0.148 ± 0.18
CUAGAGCAAUAUUACGGAAG	-0.402 ± 0.07	-0.264 ± 0.1
UUGUAGCAAUAUUACGGUGU	-2.41 ± 0.42	-2.3 ± 0.26

Sequence	self-splicing fitness (ln) (30 °C)	self-splicing fitness (ln) (37 °C)
GGAUAGCAAUAUUACGUCAA	-1.09 ± 0.19	0.00829 ± 0.15
AGAAAGCAAUAUUACGGUUG	-3.65 ± 0.17	-1.78 ± 0.16
GAAUAGCAAUAUUACGAUUC	-2.67 ± 0.14	-2.24 ± 0.2
GGGCAGCAAUAUUACGCAUG	-1.36 ± 0.1	-0.482 ± 0.12
AGGAAGCAAUAUUACGUCUU	-2.07 ± 0.062	-1.59 ± 0.08
CACCAGCAAUAUUACGCGUC	-2.87 ± 0.15	-0.883 ± 0.12
CAUCAGCAAUAUUACGGGCA	-2.51 ± 0.12	-1.83 ± 0.14
UGAAAGCAAUAUUACGUCCU	-0.649 ± 0.091	-0.195 ± 0.081
GGGGAGCAAUAUUACGCAUU	-3.09 ± 0.27	-1.93 ± 0.21
UGGUAGCAAUAUUACGUGGG	-3.64 ± 0.3	-2.14 ± 0.19
UGAAAGCAAUAUUACGGCGG	-1.03 ± 0.085	-0.221 ± 0.14
GUGUAGCAAUAUUACGAAGU	-2.86 ± 0.34	-1.67 ± 0.25
GAGAAGCAAUAUUACGUAAG	-2.72 ± 0.15	-1.1 ± 0.15
CCGCAGCAAUAUUACGAAUA	-3.37 ± 0.38	-2.62 ± 0.38
GGAGAGCAAUAUUACGCCUC	-3.07 ± 0.36	–
UUAUAGCAAUAUUACGGUGG	-0.966 ± 0.11	-0.924 ± 0.12
AAAGAGCAAUAUUACGUAAU	-2.16 ± 0.15	0.0244 ± 0.13
UGAAAGCAAUAUUACGGACG	-0.186 ± 0.084	0.54 ± 0.12
GUGUAGCAAUAUUACGGGUG	-2.72 ± 0.14	-1.13 ± 0.13
GGUCAGCAAUAUUACGUAUU	-0.159 ± 0.055	0.511 ± 0.071
CAUUAGCAAUAUUACGUUAA	-2.87 ± 0.22	-1.91 ± 0.2
AGACAGCAAUAUUACGCACC	-0.553 ± 0.13	0.279 ± 0.17
AUUUAGCAAUAUUACGGCGA	-0.579 ± 0.12	0.144 ± 0.11
AAGGAGCAAUAUUACGUGAU	-2.78 ± 0.18	-2.45 ± 0.3

Sequence	self-splicing fitness (ln) (30 °C)	self-splicing fitness (ln) (37 °C)
UCUUAGCAAUAUUACGGUGC	-3.26 ± 0.33	-1.9 ± 0.33
CGUGAGCAAUAUUACGUGUU	-3.22 ± 0.3	-2.86 ± 0.32
CAGGAGCAAUAUUACGCUGA	-4.15 ± 0.23	-3.13 ± 0.2
GUACAGCAAUAUUACGGGAC	-1.7 ± 0.12	-1.22 ± 0.14
UUUGAGCAAUAUUACGGUUU	-3.23 ± 0.48	-1.92 ± 0.32
UCGUAGCAAUAUUACGAAGA	-3.36 ± 0.5	–
UCCUAGCAAUAUUACGGAUG	-4.25 ± 0.34	-2.67 ± 0.2
ACAUAGCAAUAUUACGAAAC	-3.95 ± 0.26	-2.45 ± 0.33
ACUUAGCAAUAUUACGCUCC	-1.44 ± 0.22	0.041 ± 0.19
UCAUAGCAAUAUUACGGGUU	-4.83 ± 0.36	-3.34 ± 0.25
UGGAAGCAAUAUUACGUGAG	-0.593 ± 0.066	-0.141 ± 0.098
CCGCAGCAAUAUUACGUUAU	-3.43 ± 0.17	-2.77 ± 0.19
AUCAAGCAAUAUUACGCUCA	0.0216 ± 0.073	0.342 ± 0.096
UAAUAGCAAUAUUACGCGUU	-4.21 ± 0.17	-2.66 ± 0.15
CCAUAGCAAUAUUACGUUGC	-4.15 ± 0.22	-2.52 ± 0.23
CGAGAGCAAUAUUACGGAGU	-4.55 ± 0.42	-1.6 ± 0.2
UUGCAGCAAUAUUACGAGCC	–	-2.7 ± 0.31
CCGCAGCAAUAUUACGGCGU	-2.44 ± 0.081	-1.27 ± 0.096
UAUUAGCAAUAUUACGGACA	-1.16 ± 0.2	0.703 ± 0.28
AGCUAGCAAUAUUACGUCCU	-0.19 ± 0.083	0.188 ± 0.11
CCUUAGCAAUAUUACGUUUU	-4.8 ± 0.31	-2.85 ± 0.28
GGGCAGCAAUAUUACGGGCA	-2.14 ± 0.13	-0.0115 ± 0.09
UGAAAGCAAUAUUACGACAA	0.219 ± 0.1	-0.111 ± 0.13
UCUGAGCAAUAUUACGGUGG	-1.29 ± 0.084	-0.277 ± 0.1

Sequence	self-splicing fitness (ln) (30 °C)	self-splicing fitness (ln) (37 °C)
CAUCAGCAAUAUUACGGGCC	-3.02 ± 0.45	-2.29 ± 0.47
GUGUAGCAAUAUUACGUUUA	-2.51 ± 0.23	-2.01 ± 0.15
CUACAGCAAUAUUACGGGGC	-2.95 ± 0.2	-2.57 ± 0.22
GGGGAGCAAUAUUACGCGGA	-2.24 ± 0.32	-2.59 ± 0.36
GUAUAGCAAUAUUACGACUU	-0.268 ± 0.072	-0.0307 ± 0.085
GUGGAGCAAUAUUACGCUCA	-1.19 ± 0.26	-1.1 ± 0.26
GGGAAGCAAUAUUACGCCGA	-1.78 ± 0.17	-0.238 ± 0.12
CCCUAGCAAUAUUACGAUGU	-3.58 ± 0.22	-2.55 ± 0.18
GAUAAGCAAUAUUACGACAG	-3.46 ± 0.24	-1.89 ± 0.23
CCAGAGCAAUAUUACGGAAG	-2.32 ± 0.13	-2.1 ± 0.19
GCUCAGCAAUAUUACGAAAA	-0.758 ± 0.13	-1.02 ± 0.18
GGCUAGCAAUAUUACGCCGG	-2.34 ± 0.21	-2.27 ± 0.35
GUACAGCAAUAUUACGGGGG	-3.36 ± 0.12	-3.03 ± 0.15
AGGCAGCAAUAUUACGGAGA	-2.91 ± 0.14	-2.61 ± 0.17
AUACAGCAAUAUUACGCGGG	-3.46 ± 0.15	-1.75 ± 0.11
GUGGAGCAAUAUUACGUCGG	-3.08 ± 0.22	-2.35 ± 0.2
GUUAAGCAAUAUUACGCUAA	-2.35 ± 0.14	-1.54 ± 0.15
UAGUAGCAAUAUUACGUACG	-1.24 ± 0.16	0.127 ± 0.16
UAAAAGCAAUAUUACGAGCA	-0.549 ± 0.088	-0.276 ± 0.1
UCAGAGCAAUAUUACGGGCG	-2.45 ± 0.17	-2 ± 0.25
UAGUAGCAAUAUUACGUAAA	-3.01 ± 0.21	-1.03 ± 0.15
AGCAAGCAAUAUUACGUACU	-0.47 ± 0.057	-0.368 ± 0.075
AUUUAGCAAUAUUACGUACA	-1.7 ± 0.15	-1.39 ± 0.13
UCUAAGCAAUAUUACGGCAU	-3.46 ± 0.26	-2.55 ± 0.21
